Laboratory results reported in PMC5014153.

Experiments:
Test in all cases: EMSA
Details in all cases: 25 mM Hepes pH 8.0, 40 mM KCl, 5 mM MgCl2, 1 mM DTT, 1 mM EDTA, 8% glycerol; 50 ng protein, 20 fmol probe; 30 min at 28 C; native PAGE
[1] = target: T1, 6xHis-WRKY40 (Arabidopsis thaliana (Col-0?)) (UniProt Q9SAH7)
T1 sequence: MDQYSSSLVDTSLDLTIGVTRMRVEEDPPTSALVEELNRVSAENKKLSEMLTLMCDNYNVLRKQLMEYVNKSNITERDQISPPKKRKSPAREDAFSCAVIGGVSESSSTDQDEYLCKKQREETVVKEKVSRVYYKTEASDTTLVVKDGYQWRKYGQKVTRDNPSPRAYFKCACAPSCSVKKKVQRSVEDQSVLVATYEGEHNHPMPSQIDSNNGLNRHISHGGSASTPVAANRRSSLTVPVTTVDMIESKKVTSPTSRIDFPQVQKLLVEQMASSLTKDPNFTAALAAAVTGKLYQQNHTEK

[2] = target: 6xHis-WRKY18 (Arabidopsis thaliana (Col-0?)) (UniProt Q9C5T4)
Chain of 6xHis-WRKY18 (Arabidopsis thaliana (Col-0?)) (Q9C5T4 whole entry): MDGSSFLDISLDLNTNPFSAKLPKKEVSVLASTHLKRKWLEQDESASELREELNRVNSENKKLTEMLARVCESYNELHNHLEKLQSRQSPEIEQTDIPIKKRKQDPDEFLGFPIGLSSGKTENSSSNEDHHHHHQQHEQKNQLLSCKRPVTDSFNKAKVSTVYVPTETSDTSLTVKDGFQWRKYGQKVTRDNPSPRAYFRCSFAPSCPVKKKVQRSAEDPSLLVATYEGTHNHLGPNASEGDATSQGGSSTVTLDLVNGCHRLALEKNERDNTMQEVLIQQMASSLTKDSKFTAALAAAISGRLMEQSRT

[3] = target: 6xHis-WRKY60 (Arabidopsis thaliana (Col-0?)) (UniProt Q9SK33)
Chain of 6xHis-WRKY60 (Arabidopsis thaliana (Col-0?)) (Q9SK33 whole entry): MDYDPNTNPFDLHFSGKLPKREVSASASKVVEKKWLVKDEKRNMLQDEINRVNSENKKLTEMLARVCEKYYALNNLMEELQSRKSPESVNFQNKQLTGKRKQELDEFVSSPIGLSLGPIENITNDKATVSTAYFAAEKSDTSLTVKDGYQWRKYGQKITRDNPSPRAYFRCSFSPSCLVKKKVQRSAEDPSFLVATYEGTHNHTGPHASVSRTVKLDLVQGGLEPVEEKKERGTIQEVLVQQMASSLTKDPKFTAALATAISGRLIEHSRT

In the case of “AGTTGTAAAGTTCAGAAGGAAAAGTACTAAAATATGAAGTCAACGACAATCTTTAGAGTCAACCTTCCACTAAGAGTGTTGATTGGTTTGATGAAGCAGTGAAGGCTAGAAACTGAAGCAACTAGGGTTTGGGAAGTTACTGTTTTAACTTGTAACTGTTCGTTTGTTACTTCTTTGGTAAGGAAGTAAAACGGTGTTGTCTTATTGACCCAAAGTCTCCGCGGCTTGCTGAATAATCACAAACCTATTAAATATCC (double strand) [ProCRK5-2]”, the binding [1] was “binds”, the binding [2] was “binds” and the binding [3] was “no binding”.
